Reference: publication PMC3807529 (Biochemistry, 2013)

What was measured:
[1] = target: T1, ataxin-3 fragment containing all three UIM sequences (residues 194-361, UIM_123) (human, UniProt P54252 194-361); experiment: NMR titration
[2] = target: T1, ataxin-3 fragment containing all three …; experiment: NMR titration; remark: listed apart in the source

T1 sequence (P54252 194-361): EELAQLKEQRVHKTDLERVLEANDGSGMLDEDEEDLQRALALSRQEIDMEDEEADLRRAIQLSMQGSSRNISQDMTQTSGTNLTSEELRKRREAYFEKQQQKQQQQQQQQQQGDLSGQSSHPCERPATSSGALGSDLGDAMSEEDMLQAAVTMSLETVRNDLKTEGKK

B1: human parkin ubiquitin-like domain (residues 1-77) (domain or fragment, UniProt O60260 1-77, looked up)
chain: MIVFVRFNSSHGFPVEVDSDTSIFQLKEVVAKRQGVPADQLRVIFAGKELRNDWTVQNCDLDQQSIVHIVQRPWRKG
KD of each individual UIM (UIM1, UIM2, UIM3) in UIM_123 [1]: > 1000 µM | Kd [2]: 236 ± 14 µM
